# Test results from patent US20100137208A1, “INTRATUMORALLY ADMINISTERED LACTOFERRIN IN THE TREATMENT OF MALIGNANTNEOPLASMS AND OTHER HYPERPROLIFERATIVE DISEASES” (priority 2002, published 2010).
# B1: rhLF: recombinant human lactoferrin, a single chain metal binding glycoprotein (protein, UniProt P02788 20-710, looked up)
# Lactotransferrin: GRRRSVQWCAVSQPEATKCFQWQRNMRKVRGPPVSCIKRDSPIQCIQAIAENRADAVTLDGGFIYEAGLAPYKLRPVAAEVYGTERQPRTHYYAVAVVKKGGSFQLNELQGLKSCHTGLRRTAGWNVPIGTLRPFLNWTGPPEPIEAAVARFFSASCVPGADKGQFPNLCRLCAGTGENKCAFSSQEPYFSYSGAFKCLRDGAGDVAFIRESTVFEDLSDEAERDEYELLCPDNTRKPVDKFKDCHLARVPSHAVVARSVNGKEDAIWNLLRQAQEKFGKDKSPKFQLFGSPSGQKDLLFKDSAIGFSRVPPRIDSGLYLGSGYFTAIQNLRKSEEEVAARRARVVWCAVGEQELRKCNQWSGLSEGSVTCSSASTTEDCIALVLKGEADAMSLDGGYVYTAGKCGLVPVLAENYKSQQSSDPDPNCVDRPVEGYLAVAVVRRSDTSLTWNSVKGKKSCHTAVDRTAGWNIPMGLLFNQTGSCKFDEYFSQSCAPGSDPRSNLCALCIGDEQGENKCVPNSNERYYGYTGAFRCLAENAGDVAFVKDVTVLQNTDGNNNEAWAKDLKLADFALLCLDGKRKPVTEARSCHLAMAPNHAVVSRMDKVERLKQVLLHQQAKFGRNGSDCPDKFCLFQSETKNLLFNDNTECLARLHGKTTYEKYLGPQYVAGITNLKKCSTSPLLEACEFLRK
# Key:
# circulating lymphocytes = test: Circulating lymphocytes following intratumoral rhLF in tumor-bearing mice; type: in vivo, C3H/HeJ mice
# Experimental: Normal C3H/HeJ mice were implanted with one of two mouse tumors following the methodology described in Example 17. Tumors used were SCCVII and RIF mouse tumor cell lines. Following establishment of the tumors in the mice, tumors were injected intratumorally daily for 4 days with 250 or 500 μg rhLF per dose or with vehicle control. Twenty four hours following the last intratumoral injection, animals were sacrificed and the blood examined for lymphocyte populations. The number of circulating lymphocytes were increased by 34% to 56% relative to the placebo treated control animals (Table 14).
# [1] = system: murine squamous carcinoma cell line (SCCVII); test: SCCVII floor-of-mouth tumor growth, oral rhLF and/or radiotherapy; type: in vivo, C3H mice
# Experimental: A murine squamous carcinoma cell line (SCCVII) was injected into the floor of mouth through the neck skin of immunocompetent C3H mice (Day 0). […] Tumors were measured in three dimensions with calipers.
# Tumor-bearing mice were randomized into six groups receiving rhLF (200 mg/Kg) and/or radiotherapy as described below. RhLF (4 mg; 200 mg/kg) was administered by oral gavage once daily for 8 days on days 5 through 12. Radiotherapy was administered as single dose of 2 Gray given at the beginning (day 5) or at during (day 8) rhLF-therapy. Animals were sacrificed on day 14 post-treatment and the residual tumor masses were measured and processed for later additional analyses.
# [2] = system: Human squamous cell carcinoma (O12); test: Inhibition of tumor growth by rhLF in O12 tumor model in mice; type: in vivo, athymic nude mice
# Experimental: Human squamous cell carcinoma (O12) was used. The cells were injected into the right flank of athymic nude mice. rhLF was administered either intratumorally (49 animals, 7 doses ranging from 0.05 μg to 125 μg per dose), intravenously (7 animals, 125 μg/dose) or orally (7 animals 20 mg/dose). Control animals were treated with only the vehicle; no rhLF was administered to the control animals. rhLF was administered twice a day for either five days (intravenous group) or eight days (all other groups) starting 11 days after inoculation with tumor cells to allow formation of established tumors.
# The efficacy of treatment was evaluated by measuring the solid tumor size during and at the end of the experiment; the body weights were also determined at the time of tumor measurements.
# [3] = blood, 24 h after 4 daily intratumoral doses of 250 or 500 μg, SCCVII or RIF tumors
molecule,measurement,setting,value
B1,increase in number of circulating lymphocytes relative to placebo,"circulating lymphocytes; across CD3+, CD4+, CD8+ populations",34% to 56
same,Number of Cells CD3+,circulating lymphocytes; [3],3291
same,Number of Cells CD4+,circulating lymphocytes; [3],2621
same,Number of Cells CD8+,circulating lymphocytes; [3],1054
same,"Increase with rhLF, CD3+ cells",circulating lymphocytes; relative to placebo,56%
same,"Increase with rhLF, CD4+ cells",circulating lymphocytes; relative to placebo,46%
same,"Increase with rhLF, CD8+ cells",circulating lymphocytes; relative to placebo,34%
same,increase in TGI over monotherapy with radiation,[1]; both rhLF and radiation,15%
same,increase in TGI over monotherapy with rhLF,[1]; both rhLF and radiation,28%
same,Inhibition Relative to Placebo,[1]; rhLF 200 mg/kg oral days 5-12 plus 2 Gray on day 5,68%
same,Inhibition Relative to Placebo,[1]; rhLF 200 mg/kg oral days 5-12 plus 2 Gray on day 8,66%
same,Inhibition Relative to Placebo,"[1]; rhLF 200 mg/kg oral days 5-12 plus 2 Gray, both radiation schedules pooled",67%
same,Inhibition Relative to Placebo,"[1]; rhLF 200 mg/kg oral once daily days 5-12, no radiation",54%
same,Inhibition Relative to Placebo (tumor growth),"[2]; Intratumoral, 0.05 μg to 125 μg per dose twice a day for eight days, N = 49, Day 19",28%
same,Inhibition Relative to Placebo (tumor growth),"[2]; Intratumoral, 0.05 μg to 125 μg per dose twice a day for eight days, N = 49, Day 28",46%
same,Inhibition Relative to Placebo (tumor growth),"[2]; Intravenous, 125 μg/dose twice a day for five days, N = 7, Day 19",55%
same,Inhibition Relative to Placebo (tumor growth),"[2]; Intravenous, 125 μg/dose twice a day for five days, N = 7, Day 28",65%
same,Inhibition Relative to Placebo (tumor growth),"[2]; Oral, 20 mg/dose twice a day for eight days, N = 7, Day 19",76%
same,Inhibition Relative to Placebo (tumor growth),"[2]; Oral, 20 mg/dose twice a day for eight days, N = 7, Day 28",80%
same,reduced rates of tumor growth relative to the control,"[2]; across intratumoral, intravenous and oral routes",46% to 80
